From article PMC5262459 come the findings set out here.

This experiment addresses nucleosome with full-length recombinant Xenopus laevis histones acetylated by the lysine acetyltrans (X. laevis) (UniProt P62799). Briefly: single-particle negative-staining TEM in a DNA origami force spectrometer.

Regarding “nucleosome with full-length recombinant Xenopus laevis histones acetylated by the lysine acetyltrans (from UniProt P62799 1-103) (complex)”, the depth of the minimum of the nucleosome pair potential is -0.6 kcal/mol.
